For one test, the target named is T1, human VEGFR2-Fc chimera (human, UniProt P35968 20-764).
T1 construct: bought (R&D Systems); also called hVEGFR2-Fc; VEGFR2-huFc
Kind of test: binding ELISA on coated human VEGF121. The protocol:
Binding to recombinant human VEGF121 is assessed via a solid phase binding ELISA. Briefly, recombinant human VEGF121 (R&D Systems, Minneapolis, Minn., USA) is coated overnight at 4° C. at 1 μg/mL in a 96-well MaxiSorp plate (Nunc, Wiesbaden, Germany). Wells are blocked with a casein solution (1% in PBS).
On the technique in general: An ELISA detects its analyte on a solid surface through an enzyme-linked reagent.

Test [1] deals with T2, recombinant human VEGF165 (human, UniProt P15692-4 27-191).
T2 construct: also called hVEGF165; rhVEGF165
T2 sequence (P15692 other isoform, or with tags, fused parts or gaps limits assumed): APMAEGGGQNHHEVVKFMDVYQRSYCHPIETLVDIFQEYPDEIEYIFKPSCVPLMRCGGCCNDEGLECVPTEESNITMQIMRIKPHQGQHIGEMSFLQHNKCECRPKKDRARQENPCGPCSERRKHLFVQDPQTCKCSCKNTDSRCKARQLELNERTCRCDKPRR
In words: Biacore on VEGF165 (see Example 5.5). The protocol:
Samples are injected for 2 min and allowed to dissociate up to 20 min at a flow rate of 45 μI/min. In between sample injections, the chip surface is regenerated with 100 mM HCl. HBS-EP+(Hepes buffer pH7.4+EDTA) is used as running buffer. Binding curves are fitted using a Two State Reaction model by Biacore T100 Evaluation Software v2.0.1.
Affinity of VEGFBII032 is determined by Biacore (see Example 5.5) and the melting temperature is determined in the thermal shift assay as described above.

Test [2] has as its target T2, recombinant human VEGF165. Kind of test: ProteOn, periplasmic extract 1/10 on hVEGF165 chip. The source says: One additional variant is constructed in which the potential oxidation site at position M30 (CDR1 region, see FIG. 19 indicated as bold italic residue) is removed by introduction of a M30I mutation.
Test [3] has as its target T3, hAng2.
T3 construct: also called human Ang2
T3 chain: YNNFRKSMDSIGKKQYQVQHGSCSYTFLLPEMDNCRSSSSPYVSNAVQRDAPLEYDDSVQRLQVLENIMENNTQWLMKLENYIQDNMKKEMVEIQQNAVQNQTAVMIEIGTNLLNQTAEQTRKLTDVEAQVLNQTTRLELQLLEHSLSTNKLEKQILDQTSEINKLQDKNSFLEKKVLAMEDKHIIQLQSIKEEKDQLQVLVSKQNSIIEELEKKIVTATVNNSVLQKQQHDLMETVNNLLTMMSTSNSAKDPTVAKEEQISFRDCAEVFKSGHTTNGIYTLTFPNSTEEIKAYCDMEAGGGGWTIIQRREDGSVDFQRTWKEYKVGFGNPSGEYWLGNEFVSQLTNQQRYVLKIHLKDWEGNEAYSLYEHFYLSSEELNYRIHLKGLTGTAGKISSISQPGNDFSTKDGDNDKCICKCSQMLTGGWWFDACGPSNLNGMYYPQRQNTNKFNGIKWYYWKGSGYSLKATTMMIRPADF
In words: competition ELISA, blocking of hAng2 binding to hTie2.

Test [4] concerns the target T4, mAng2.
T4 construct: also called mouse Ang2
T4 chain: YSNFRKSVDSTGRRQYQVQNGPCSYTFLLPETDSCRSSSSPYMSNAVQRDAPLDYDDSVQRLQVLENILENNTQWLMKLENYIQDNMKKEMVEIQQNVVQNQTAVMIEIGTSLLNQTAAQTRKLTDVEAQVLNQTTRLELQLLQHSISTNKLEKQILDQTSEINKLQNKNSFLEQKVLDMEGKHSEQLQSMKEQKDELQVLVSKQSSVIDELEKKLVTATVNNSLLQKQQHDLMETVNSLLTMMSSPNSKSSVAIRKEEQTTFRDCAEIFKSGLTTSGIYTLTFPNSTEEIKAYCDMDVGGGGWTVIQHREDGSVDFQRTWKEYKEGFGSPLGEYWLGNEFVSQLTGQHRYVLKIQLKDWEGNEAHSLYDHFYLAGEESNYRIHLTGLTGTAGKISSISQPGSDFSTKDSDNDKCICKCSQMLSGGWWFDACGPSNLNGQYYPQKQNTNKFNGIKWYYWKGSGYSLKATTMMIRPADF
Kind of test: competition ELISA, blocking of mAng2 binding to mTie2.

Test [5] deals with T5, cAng2 (cynomolgus monkey).
T5 construct: also called cyno Ang2
Kind of test: competition ELISA, blocking of cAng2 binding to cTie2.

In test [6] the target is T6, hAng2.
T6 chain: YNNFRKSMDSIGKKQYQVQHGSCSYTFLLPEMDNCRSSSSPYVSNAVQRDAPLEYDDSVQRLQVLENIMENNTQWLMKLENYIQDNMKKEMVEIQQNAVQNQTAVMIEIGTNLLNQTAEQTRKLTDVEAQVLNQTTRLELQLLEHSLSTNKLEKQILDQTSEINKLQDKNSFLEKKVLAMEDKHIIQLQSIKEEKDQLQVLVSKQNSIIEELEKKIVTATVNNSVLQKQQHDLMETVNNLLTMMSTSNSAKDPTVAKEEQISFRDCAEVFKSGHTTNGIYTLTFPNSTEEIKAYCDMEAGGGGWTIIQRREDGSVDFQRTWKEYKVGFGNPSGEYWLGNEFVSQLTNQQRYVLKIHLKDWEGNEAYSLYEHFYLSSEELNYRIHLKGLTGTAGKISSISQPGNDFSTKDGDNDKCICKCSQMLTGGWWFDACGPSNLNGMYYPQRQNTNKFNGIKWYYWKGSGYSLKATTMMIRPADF
In words: cell-based or functional assay.

Test [7] deals with T6, hAng2. In words: competition ELISA, blocking of hAng2 binding to hTie2-Fc.
Test [8] concerns the target T7, mAng2.
T7 construct: may be the same protein as m22 (mouse Ang2-FLD); also called mouse Ang2
T7 chain: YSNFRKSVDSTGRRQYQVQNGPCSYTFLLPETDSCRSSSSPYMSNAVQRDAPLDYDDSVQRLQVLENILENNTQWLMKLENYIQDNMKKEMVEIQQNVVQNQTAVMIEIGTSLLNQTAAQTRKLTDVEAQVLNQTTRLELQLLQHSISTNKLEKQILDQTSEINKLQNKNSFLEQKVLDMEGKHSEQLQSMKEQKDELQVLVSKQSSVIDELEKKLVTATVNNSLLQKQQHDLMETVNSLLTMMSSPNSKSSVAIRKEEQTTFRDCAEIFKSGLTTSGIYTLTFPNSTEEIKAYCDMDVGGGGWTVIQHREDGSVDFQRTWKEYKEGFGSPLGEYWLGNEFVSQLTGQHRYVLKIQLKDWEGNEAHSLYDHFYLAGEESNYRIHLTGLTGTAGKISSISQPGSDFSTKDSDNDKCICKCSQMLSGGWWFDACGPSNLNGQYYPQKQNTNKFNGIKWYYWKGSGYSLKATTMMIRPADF
In words: competition ELISA, blocking of mAng2 binding to mTie2-Fc.

For test [9], the target named is T8, cAng2 (cynomolgus monkey).
T8 construct: may be the same protein as m21 (cyno Ang2-FLD); also called cyno Ang2
Kind of test: competition ELISA, blocking of cAng2 binding to cTie2-Fc.

T1 sequence (P35968 20-764, change not shown): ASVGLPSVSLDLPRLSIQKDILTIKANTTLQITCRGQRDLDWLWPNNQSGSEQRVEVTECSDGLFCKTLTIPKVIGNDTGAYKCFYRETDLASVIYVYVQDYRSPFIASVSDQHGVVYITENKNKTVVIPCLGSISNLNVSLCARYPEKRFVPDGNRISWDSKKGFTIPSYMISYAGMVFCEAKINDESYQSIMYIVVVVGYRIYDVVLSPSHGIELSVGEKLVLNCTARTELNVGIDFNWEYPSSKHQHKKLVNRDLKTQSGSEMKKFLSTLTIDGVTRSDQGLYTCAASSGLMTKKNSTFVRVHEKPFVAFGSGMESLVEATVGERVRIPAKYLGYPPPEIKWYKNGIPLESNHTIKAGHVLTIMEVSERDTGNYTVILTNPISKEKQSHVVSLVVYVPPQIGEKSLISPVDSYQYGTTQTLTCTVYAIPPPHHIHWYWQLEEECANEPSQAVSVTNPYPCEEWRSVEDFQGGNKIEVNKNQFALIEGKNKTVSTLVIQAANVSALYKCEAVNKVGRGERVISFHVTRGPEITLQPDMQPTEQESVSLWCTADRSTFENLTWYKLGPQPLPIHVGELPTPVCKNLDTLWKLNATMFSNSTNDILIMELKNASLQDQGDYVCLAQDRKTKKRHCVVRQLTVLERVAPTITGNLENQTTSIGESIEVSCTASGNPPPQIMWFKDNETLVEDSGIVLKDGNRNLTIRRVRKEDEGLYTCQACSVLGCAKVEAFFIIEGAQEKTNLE

B1: recombinant human VEGF121 (ligand, UniProt P15692-9 27-147, looked up)
chain: APMAEGGGQNHHEVVKFMDVYQRSYCHPIETLVDIFQEYPDEIEYIFKPSCVPLMRCGGCCNDEGLECVPTEESNITMQIMRIKPHQGQHIGEMSFLQHNKCECRPKKDRARQEKCDKPRR
notes: also called rhVEGF121; hVEGF121
Turning to B1, the binding result with human VEGFR2-Fc chimera is “binds”.

B2: VEGFBII05B05 (VHH)
VHH: EVQLVESGGGLVQPGGSLRLSCVASGIRFMSMAWYRQAPGKHRELVARISSGGTTAYVDSVKGRFTISRDNSKNTVYLQMNSLKAEDTAVYYCNTFSSRPNPWGAGTQVTVSS
notes: also called VEGFBII5B05; VEGFBII5B05(wt)
Consider B2, for which the Kd (as a rule, the equilibrium constant for the complex coming apart) in test [1] was determined as 32 nM. Further, in [2], the “Binding level (RU)” value came to 242 RU and the koff (usually the first-order rate constant of dissociation) came out at 0.0615 s⁻¹.

B3: VEGFBII032 (VHH)
VHH: EVQLVESGGGLVQPGGSLRLSCAASGIRFISMAWYRQAPGKQRELVARISSGGTTAYADSVKGRFTISRDNSKNTVYLQMNSLRAEDTAVYYCNTFSSRPNPWGQGTLVTVSS
notes: also called VEGFBII0032
Turning to B3, in test [1], the Kd is 44 nM.

B4: ANGBII00006 (VHH)
bivalent VHH: EVQLVESGGGLVQPGGSLRLSCAASGITLDDYAIGWFRQAPGKEREGVSSIRDNGGSTYYADSVKGRFTISSDNSKNTVYLQMNSLRPEDTAVYYCAAVPAGRLRYGEQWYPIYEYDAWGQGTLVTVSSGGGGSGGGSEVQLLESGGGLVQPGGSLRLSCAASGITLDDYAIGWFRQAPGKEREGVSSIRDNGGSTYYADSVKGRFTISSDNSKNTVYLQMNSLRPEDTAVYYCAAVPAGRLRYGEQWYPIYEYDAWGQGTLVTVSS
notes: homodimeric anti-Ang2 VHH; also called 00908-9gs-00908
B4: the “IC50 (read off the curve)” value with hAng2 [3] was ~0.02 nM; in the test with mAng2 [4], ~0.03 nM; with cAng2 [5] it was ~0.03 nM.

B5: 00938 (VHH)
VHH: EVQLVESGGGLVQPGGSLRLSCAVSGITLDDYAIGWFRQAPGKEREGVSAIRSSGGSTYYADSVKGRFTISSDNSKNTVYLQMNSLRPEDTAVYYCAAVPAGRLRYGEQWYPIYEYDAWGQGTLVTVSS
As for B5, the “IC50 (read off the curve), hAng2 mediated HUVEC survival” value with hAng2 [6] is ~5 nM. For the same molecule, the “IC50 (read off the curve)” value with hAng2 [7] is ~0.04 nM; with mAng2 [8] it was ~0.05 nM; with cAng2 [9], ~0.09 nM.

Source of the values: patent US20170247475A1 (Boehringer Ingelheim, published 2017).
